Source: US20160193316A1 (priority 1994, published 2016)
Where two headings read alike, the source gives them in different places.

Experiments:
[1] = biological target: T1, DRB1*1501 (DR2w2β1) (Homo sapiens, UniProt P01903+P01911); test: HLA class II peptide binding assay; conditions: for DR2w2β1 binding data: Table XIXb
T1 construct: expressed in transfected cells; host or cells: L466.1 (fibroblasts)

[2] = biological target: T2, DRB1*0901 (DR9) (Homo sapiens, UniProt P01903+P01911, A100R/A103E/D57H/D86V/F55Y/F60I/F76Y/I96F/K127E/L162R/M171V/P40D/Q125H/Q99R/R33Q/R42F/S133A/S66N/T210M/V115G/W38K/Y107V/Y59G/Y89S); test: biochemical; type: binding
T2 construct: endogenous in cells; host or cells: HID

[3] = biological target: T3, DRB1*0405 (DR4w15) (Homo sapiens, UniProt P01903+P01911, A100R/A169T/D86S/F76Y/I96L/K127E/L162R/M171V/N62H/P40V/Q125Y/R42H/S133A/S149N/S66Y/V115G/V209L/W38E); test: HLA class II peptide binding assay; conditions: for DR4w15 binding data: Table XIXb; for DR4w15 binding information: DR3a motif peptides, unit not given, exemplary 15-mer containing the core sequence
T3 construct: endogenous in cells; host or cells: KT3

[4] = biological target: T4, DRB5*0101 (DR2w2β2) (Homo sapiens, UniProt P01903+Q30154); type: binding
T4 construct: expressed in transfected cells; host or cells: L416.3 (fibroblasts) or GM3107

[5] = biological target: T5, DRB1*0401 (DR4w4) (Homo sapiens, UniProt P01903+P01911, A100K/A169T/F76Y/I96L/K127E/L162R/M171V/N62H/P40V/Q125Y/R42H/S133A/S149N/S66Y/V115G/V209L/W38E); test: HLA class II peptide binding assay; conditions: for DR4w4 binding data: Table XIXb; for DR4w4 binding information: DR3a motif peptides, unit not given, exemplary 15-mer containing the core sequence
T5 construct: endogenous in cells; host or cells: Preiss

[6] = biological target: T6, DRB4*0101 (DRw53) (Homo sapiens, UniProt P01903+P13762, G164S); test: HLA class II peptide binding assay (pH 5.0); conditions: for DRw53 binding data: Table XIXb; for DRw53 binding information: DR3a motif peptides, unit not given, exemplary 15-mer containing the core sequence
T6 construct: expressed in transfected cells; host or cells: L257.6 (fibroblasts)

[7] = biological target: T7, DRB1*0301 (DR3) (Homo sapiens, UniProt P01903+P01911, A100K/A102G/A103R/A169T/F55Y/I96L/K41T/L162R/M171V/P40S/Q125H/Q178H/Q39Y/R42S/S66N/T106N/T262R/W38E/Y61H); test: HLA class II peptide binding assay (pH 4.5); conditions: for DR3 binding data: Table XIXb; for DR3 binding information: unit not given
T7 construct: endogenous in cells; host or cells: MAT

[8] = biological target: T8, DRB1*1201 (DR5w12) (Homo sapiens, UniProt P01903+P01911, A100R/A169T/D57E/D86V/F55L/H45Y/K41T/L162R/M171V/P40S/Q125H/Q178H/Q39Y/Q99D/R42G/S66L/T262R/V114A/V67L/W38E/Y59H/Y61H/Y89S); test: HLA class II peptide binding assay; conditions: for DR5w12 binding data: Table XIXb; for DR5w12 binding information: DR3a motif peptides, unit not given, exemplary 15-mer containing the core sequence
T8 construct: endogenous in cells; host or cells: Herluf

[9] = biological target: T9, DRB1*0701 (DR7) (Homo sapiens, UniProt P01903+P01911, A100R/A102G/A103Q/D57E/D86V/E43K/F76Y/K127E/L162R/M171V/P40G/Q125H/Q99D/R33Q/R42Y/R54Q/S133A/S66F/T210M/V115G/Y107V/Y59L/Y89S); test: biochemical; type: binding
T9 construct: endogenous in cells; host or cells: Pitout

[10] = biological target: T10, DRB1*1302 (DR6w19) (Homo sapiens, UniProt P01903+P01911, A100E/A169T/K41T/L162R/M171V/P40S/Q125H/Q178H/Q39Y/Q99D/R42S/S66N/T262R/V115G/W38E/Y61H); test: HLA class II peptide binding assay; conditions: for DR6w19 binding data: Table XIXb
T10 construct: endogenous in cells; host or cells: H0301

[11] = biological target: T11, DRB1*1101 (DR5w11) (Homo sapiens, UniProt P01903+P01911, A100R/A169T/A87E/I96F/K41T/L162R/M171V/P40S/Q125H/Q178H/Q39Y/Q99D/R42S/S66Y/T262R/V115G/W38E); test: biochemical; type: binding
T11 construct: endogenous in cells; host or cells: Sweig

[12] = biological target: T12, DRB1*0101 (DR1) (Homo sapiens, UniProt P01903+P01911, A100R/D57E/F55L/F60I/F76Y/I96L/L162R/M171V/P40L/Q125E/R42F/V115G/Y59C); test: HLA class II peptide binding assay; conditions: for DR1 binding data: Table XIXb, Malaria Super Motif Peptides With Binding Data; for DR1 binding information: DR3a motif peptides, unit not given, exemplary 15-mer containing the core sequence
T12 construct: endogenous in cells; host or cells: LG2

[13] = biological target: HLA-A*0201 (Homo sapiens, UniProt P04439, D140Y/D185E/D98H/E176V/E277Q/G131W/G231S/I119V/I121R/I166T/I218V/L300P/L318F/N151K/N90K/P208A/P217A/Q86G/Q94H/R138H/R169H/T345S); test: HLA class I peptide binding assay
[14] = biological target: T13, DRB1*0802 (DR8w2) (Homo sapiens, UniProt P01903+P01911, A100R/A103L/A169T/F76Y/H45Y/I96F/K41T/L162R/M171V/P40S/Q125H/Q178H/Q39Y/Q99D/R218S/R42G/S66Y/V115G/W38E); test: biochemical; type: binding
T13 construct: endogenous in cells; host or cells: OLL

[15] = biological target: HLA-A*2402 (Homo sapiens, UniProt P04439, D101N/D140Y/D185E/E176V/E190D/F33S/G103R/G107R/I119L/I121M/I306V/K335N/L105A/L180Q/L300P/N151K/N90K/Q86E/Q94H/R106L/R138H/R89G/T104I/T345S/V100E/W191G/Y123F); test: HLA class I peptide binding assay
[16] = biological target: T14, HLA-B*0702 (Homo sapiens, UniProt P01889); test: HLA class I peptide binding assay; conditions: Malaria B07 super motif peptides; binding value, no unit
T14 construct: endogenous in cells; host or cells: GM3107

[17] = Malaria A02 motif peptides, Table VIII, unit not given
[18] = DR3a motif peptides, exemplary 15-mer containing the core sequence
[19] = DR3a motif peptides, unit not given, exemplary 15-mer containing the core sequence

T11 sequence (P01903 26-254, other chains not shown): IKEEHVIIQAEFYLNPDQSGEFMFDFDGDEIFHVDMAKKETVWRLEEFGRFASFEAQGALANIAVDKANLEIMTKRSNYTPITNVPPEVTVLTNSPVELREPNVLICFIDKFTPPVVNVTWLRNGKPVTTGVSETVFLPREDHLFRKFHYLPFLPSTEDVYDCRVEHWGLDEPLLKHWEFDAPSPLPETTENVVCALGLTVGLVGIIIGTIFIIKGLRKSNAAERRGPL
T10 sequence (P01903 26-254, other chains not shown): as above
T12 sequence (P01903 26-254 partner, other chains not shown): as the sequence (P01903 26-254, other chains not shown) above
T5 sequence (P01903 26-254 partner, other chains not shown): as the sequence (P01903 26-254, other chains not shown) above

FMKAVCVEV
DR2w2β1 binding data [1]: 0.0003
DR9 binding data [2]: 0.0820
DR4w15 binding data [3]: 0.0086
DR2w2β2 binding data [4]: 0.0430
DR4w4 binding data [5]: -0.0006
DRw53 binding data [6]: 0.0700
DR3 binding data [7]: -0.0008
DR5w12 binding data [8]: 0.0038
DR7 binding data [9]: 0.0019
DR6w19 binding data [10]: 0.0003
DR5w11 binding data [11]: -0.0004
DR1 binding data [12]: 0.0072
A*0201 (binding information) [13, 17]: 0.0290
DR8w2 binding data [14]: -0.0003

GLIMVLSFL
A*0201 (binding information) [13]: 0.0630

KYLVIVFLI
A*201 (binding information) [15]: 4.6000
A*2401 (binding information, Malaria A24 motif peptides) [15]: 4.6000

PYAQEPAPF
HLA-A24 binding value ([15]; Table X, Malaria A24 Super Motif Peptides With Binding Information, unit not given): 0.0370

MPNDPNRNV
DR3 binding information [7, 18]: -0.0033
B*0702 (binding information) [16]: 0.0001

ILTDGIPDS
DR2w2β1 binding information [1, 19]: 0.0001
DR9 binding information [2]: 0.0014
DR4w15 binding information [3]: -0.0014
DR2w2β2 binding information [4]: -0.0006
DR4w4 binding information [5]: 0.3600
DRw53 binding information [6]: 0.0480
DR3 binding information [7, 18]: 0.1400
DR5w12 binding information [8]: 0.0002
DR7 binding information [9]: 0.0046
DR6w19 binding information [10, 19]: 0.0002
DR5w11 binding information [11]: -0.0004
DR1 binding information [12]: 0.0002
DR8w2 binding information [14]: -0.0003

LAGGLALLA
A*0201 (binding information) [13, 17]: 0.0001

TPYAGEPAPF
B*0702 (binding information) [16]: 0.0990

VSTVLLGGV
DR2w2β1 binding data [1]: 0.0001
DR9 binding data [2]: -0.0005
DR4w15 binding data [3]: -0.0014
DR2w2β2 binding data [4]: -0.0005
DR4w4 binding data [5]: 0.0016
DRw53 binding data [6]: -0.0005
DR3 binding data [7]: -0.0008
DR5w12 binding data [8]: 0.0005
DR7 binding data [9]: -0.0003
DR6w19 binding data [10]: 0.0006
DR5w11 binding data [11]: -0.0002
DR1 binding data [12]: 0.0140
DR8w2 binding data [14]: -0.0003

ALLQVRKHL
DR3 binding information ([7]; Malaria DR3b motif peptides): -0.0033
A*0201 (binding information) [13, 17]: 0.0010

IPEDSEKEV
DR3 binding information [7, 18]: -0.0130
B*0702 (binding information) [16]: 0.0001

ILSVSSFLFV
A*0201 (binding information) [13]: 0.0300

LLGGVCLVL
A*0201 (binding information) [13, 17]: 0.0038

LLMDCSGSI
DR4w15 binding information [3]: 0.0028
DR2w2β2 binding information [4]: 0.0250
DR4w4 binding information [5]: 0.0340
DRw53 binding information [6]: 0.0057
DR3 binding information [7, 18]: 0.0300
DR5w12 binding information [8]: 0.0001
DR7 binding information [9]: 0.0072
DR5w11 binding information [11]: -0.0002
DR1 binding information [12]: 0.0041
A*0201 (binding information) [13, 17]: 0.0460
DR8w2 binding information [14]: 0.0014
